The source of these data is paper PMC9935876, “Structure of the planar cell polarity cadherins Fat4 and Dachsous1” (Nature Communications, 2023).

To fix the notation:
B1: human Fat4(EC1–4) [human] / human Dchs1(EC1–4) [human] (parent complex)
chain 1: DPAEPRQVFQVLEEQPPGTLVGTIQTRPGFTYRLSESHALFAINSSTGALYTTSTIDRESLPSDVINLVVLSSAPTYPTEVRVLVRDLNDNAPVFPDPSIVVTFKEDSSSGRQVILDTATDSDIGSNGVDHRSYRIIRGNEAGRFRLDITLNPSGEGAFLHLVSKGGLDREVTPQYQLLVEVEDKGEPKRRGYLQVNVTVQDINDNPPVFGSSHYQAGVPEDAVVGSSVLQVAAADADEGTNADIRYRLQDEGTPFQMDPETGLITVREPLDFEARRQYSLTVQAMDRGVPSLTGRAEALIQLLDVNDNDPVVKFRYFPATSRYASVDENAQVGTVVALLTVTDADSPAANGNISVQILGGNEQRHFEVQSSKVPNLSLIKVASALDRERIPSYNLTVSVSDNYGAPPGAAVQARSSVASLVIFVNDINDHPPVF
chain 2: DPQAGSLDLQIDEEQPAGTLIGDISAGLPAGTAAPLMYFISAQEGSGVGTDLAIDEHSGVVRTARVLDREQRDRYRFTAVTPDGATVEVTVRVADINDHAPAFPQARAALQVPEHTAFGTRYPLEPARDADAGRLGTQGYALSGDGAGETFRLETRPGPDGTPVPELVVTGELDRENRSHYMLQLEAYDGGSPPRRAQALLDVTLLDINDHAPAFNQSRYHAVVSESLAPGSPVLQVFASDADAGVNGAVTYEINRRQSEGDGPFSIDAHTGLLQLERPLDFEQRRVHELVVQARDGGAHPELGSAFVTVHVRDANDNQPSMTVIFLSADGSPQVSEAAPPGQLVARISVSDPDDGDFAHVNVSLEGGEGHFALSTQDSVIYLVCVARRLDREERDAYNLRVTATDSGSPPLRAEAAFVLHVTDVNDNAPAF
B2: human Dchs1(EC1–4) [human] / human Fat4(EC1–4) [human] (parent complex)
chain 1: B1 chain 2
chain 2: B1 chain 1

The variants in the first assay derive from B1. Put plainly: ITC; parent: 1; read off a plot. (In general: Isothermal titration calorimetry measures the heat released or taken up as one component is titrated into another.)
On to chain 1 DPAEPRQVFQVLEEQPPGTLVGTIQTRPGFTYRLSESHALFAINSSTGALYTTSTIDRESLPSDVINLVVLSSAPTYPTEVRVLVRDLNDNAPVFPDPSIVVTFKEDSSSGRQVILDTATDSDIGSNGVDHRSYRIIRGNEAGRFRLDITLNPSGEGAFLHLVSKGGLDREVTPQYQLLVEVEDKGEPKRRGYLQVNVTVQDINDNPPVFGSSHYQAGVPEDAVVGSSVLQVAAADADEGTNADIRYRLQDEGTPFQMDPETGLITVREPLDFEARRQYSLTVQAMDRGVPSLTGRAEALIQLLDVNDNDPVVKFRYAPATSRYASVDENAQVGTVVALLTVTDADSPAANGNISVQILGGNEQRHFEVQSSKVPNLSLIKVASALDRERIPSYNLTVSVSDNYGAPPGAAVQARSSVASLVIFVNDINDHPPVF [chain 1 F318A], for which the ratio to parent is about 1.8.

A further assay covers variants of B2. Briefly: ITC; parent: 1; read off a plot.
For the variant chain 1 DPQAGSLDLQIDEEQPAGTLIGDISAGLPAGTAAPLMYAISAQEGSGVGTDLAIDEHSGVVRTARVLDREQRDRYRFTAVTPDGATVEVTVRVADINDHAPAFPQARAALQVPEHTAFGTRYPLEPARDADAGRLGTQGYALSGDGAGETFRLETRPGPDGTPVPELVVTGELDRENRSHYMLQLEAYDGGSPPRRAQALLDVTLLDINDHAPAFNQSRYHAVVSESLAPGSPVLQVFASDADAGVNGAVTYEINRRQSEGDGPFSIDAHTGLLQLERPLDFEQRRVHELVVQARDGGAHPELGSAFVTVHVRDANDNQPSMTVIFLSADGSPQVSEAAPPGQLVARISVSDPDDGDFAHVNVSLEGGEGHFALSTQDSVIYLVCVARRLDREERDAYNLRVTATDSGSPPLRAEAAFVLHVTDVNDNAPAF [chain 1 F39A], the ratio to parent is about 4.4.
